Data taken from publication PMC12352893.

Target: purified recombinant cathepsin A (CTSA) (human) (UniProt P10619)
Sequence (P10619 29-480): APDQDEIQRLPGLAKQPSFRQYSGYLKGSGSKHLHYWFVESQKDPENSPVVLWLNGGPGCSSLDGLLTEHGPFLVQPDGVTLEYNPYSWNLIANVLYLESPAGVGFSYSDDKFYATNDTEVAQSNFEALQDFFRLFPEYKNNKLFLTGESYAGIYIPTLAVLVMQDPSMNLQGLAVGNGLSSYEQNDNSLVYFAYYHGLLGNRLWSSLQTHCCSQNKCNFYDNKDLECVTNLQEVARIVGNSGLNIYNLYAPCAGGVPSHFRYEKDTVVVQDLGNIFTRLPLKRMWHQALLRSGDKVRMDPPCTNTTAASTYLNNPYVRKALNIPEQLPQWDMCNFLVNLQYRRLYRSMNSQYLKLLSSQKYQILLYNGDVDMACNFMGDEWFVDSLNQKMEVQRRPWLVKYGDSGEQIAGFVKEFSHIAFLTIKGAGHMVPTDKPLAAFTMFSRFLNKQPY

“purified recombinant NEU1 (from UniProt Q99519 48-415) (enzyme)” gave an NEU1 enzymatic activity (moles of substrate/moles of NEU1/sec) of recombinant NEU1 incubated with CTSA; fold reduction by high HS concentrations (≥0.3 mg/mL) of 100 fold.
